Article PMC8058328 (Developmental cell, 2021)

Target: T1, GST-SH3BP4-HIS8x (human, UniProt Q9P0V3 1-963)
T1 sequence (looked up): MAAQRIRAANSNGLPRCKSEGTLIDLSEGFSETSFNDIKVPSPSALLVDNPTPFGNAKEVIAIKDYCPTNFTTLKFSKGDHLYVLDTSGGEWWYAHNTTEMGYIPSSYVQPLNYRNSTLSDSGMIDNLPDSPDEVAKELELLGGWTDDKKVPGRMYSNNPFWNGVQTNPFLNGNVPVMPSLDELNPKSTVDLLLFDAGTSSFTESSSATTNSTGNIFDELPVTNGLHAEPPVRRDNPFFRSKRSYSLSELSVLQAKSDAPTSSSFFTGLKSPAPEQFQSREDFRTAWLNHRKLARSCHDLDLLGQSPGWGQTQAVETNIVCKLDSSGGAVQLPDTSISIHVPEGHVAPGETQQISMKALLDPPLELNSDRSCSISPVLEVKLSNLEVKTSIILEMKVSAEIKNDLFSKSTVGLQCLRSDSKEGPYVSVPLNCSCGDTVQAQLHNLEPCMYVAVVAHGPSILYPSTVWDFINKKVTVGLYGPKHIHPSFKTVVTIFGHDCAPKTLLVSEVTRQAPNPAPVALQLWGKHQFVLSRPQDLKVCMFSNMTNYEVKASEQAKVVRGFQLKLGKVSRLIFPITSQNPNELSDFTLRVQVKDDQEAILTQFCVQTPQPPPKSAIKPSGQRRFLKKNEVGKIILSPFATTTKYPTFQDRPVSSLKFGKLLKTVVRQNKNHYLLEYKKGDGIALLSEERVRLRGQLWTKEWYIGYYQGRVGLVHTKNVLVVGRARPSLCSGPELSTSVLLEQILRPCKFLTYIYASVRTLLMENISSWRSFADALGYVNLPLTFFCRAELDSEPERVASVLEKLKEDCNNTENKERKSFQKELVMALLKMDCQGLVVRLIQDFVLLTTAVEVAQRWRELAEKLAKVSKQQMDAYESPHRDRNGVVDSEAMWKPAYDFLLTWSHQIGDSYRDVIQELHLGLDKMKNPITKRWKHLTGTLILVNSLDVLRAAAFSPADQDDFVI
Experiment: pull-down

B1: GIPC1-HIS8x (natural protein, human, UniProt O14908 1-333, looked up)
chain: MPLGLGRRKKAPPLVENEEAEPGRGGLGVGEPGPLGGGGSGGPQMGLPPPPPALRPRLVFHTQLAHGSPTGRIEGFTNVKELYGKIAEAFRLPTAEVMFCTLNTHKVDMDKLLGGQIGLEDFIFAHVKGQRKEVEVFKSEDALGLTITDNGAGYAFIKRIKEGSVIDHIHLISVGDMIEAINGQSLLGCRHYEVARLLKELPRGRTFTLKLTEPRKAFDMISQRSAGGRPGSGPQLGTGRGTLRLRSRGPATVEDLPSAFEEKAIEKVDDLLESYMGIRDTELAATMVELGKDKRNPDELAEALDERLGDFAFPDEFVFDVWGAIGDAKVGRY
binding result: binds
